Consider one molecule from patent US20230044037A1 (INTERVET, published 2023).

For the test, the target named is T1, canine IL-4 receptor alpha (IL-4Rα) on DH82 cells (canine).
T1 construct: Endogenous receptor of the DH82 cells in the STAT-6 assay; also called canine IL-4Rα; IL-4R alpha
T1 chain: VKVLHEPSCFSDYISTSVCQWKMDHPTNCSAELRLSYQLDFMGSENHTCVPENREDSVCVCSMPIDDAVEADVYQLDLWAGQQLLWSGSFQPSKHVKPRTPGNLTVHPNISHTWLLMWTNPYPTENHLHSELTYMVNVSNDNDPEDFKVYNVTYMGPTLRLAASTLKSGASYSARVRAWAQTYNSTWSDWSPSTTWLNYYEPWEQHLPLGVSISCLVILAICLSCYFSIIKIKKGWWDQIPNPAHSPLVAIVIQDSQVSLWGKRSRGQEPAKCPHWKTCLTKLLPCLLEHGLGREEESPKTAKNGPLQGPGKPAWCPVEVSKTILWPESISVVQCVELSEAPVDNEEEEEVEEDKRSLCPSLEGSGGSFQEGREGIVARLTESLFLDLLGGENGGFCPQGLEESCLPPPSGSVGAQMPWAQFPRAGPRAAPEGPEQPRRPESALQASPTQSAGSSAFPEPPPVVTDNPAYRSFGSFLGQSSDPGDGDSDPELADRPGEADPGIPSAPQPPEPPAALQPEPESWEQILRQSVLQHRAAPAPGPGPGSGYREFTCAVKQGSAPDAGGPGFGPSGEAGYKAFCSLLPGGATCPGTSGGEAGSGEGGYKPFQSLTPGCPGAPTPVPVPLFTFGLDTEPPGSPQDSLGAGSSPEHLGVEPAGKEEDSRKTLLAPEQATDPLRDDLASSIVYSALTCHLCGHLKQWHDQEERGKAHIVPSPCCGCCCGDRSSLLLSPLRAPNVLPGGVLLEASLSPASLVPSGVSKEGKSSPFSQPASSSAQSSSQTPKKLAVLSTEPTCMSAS
Nature of the test: told from inhibition of IL-4- and IL-13-mediated STAT-6 phosphorylation in DH82 cells (AlphaLISA). Background: Alpha assays give light when donor and acceptor beads are brought close together.

B1: c152H11-H3L3 (c152H11VL3-cCLk-s/c152H11VH3-cIgG-Bm) (antibody, V domains shown)
VH: EVQLVESGGDLVKPGGSLRLSCAASGFTFSSYGMSWVRQAPDKRLQWVATISRGGDYTYYPDSVKGRFTISRDNAKNTLYLQMNSLRAEDTAMYYCARGTLNNRGFASWGQGTLVTVSS
VL: EIVMTQSPASLSLSQEEKVTITCKASQNVGTNVAWYQQKPGQAPKLLIYSASYRYSGLPDRFSGSGSGTDFSFTISSLEPEDVAEFFCQQYNSYPYTFGQGTKLEIKR
notes: Caninized anti-canine IL-4R alpha antibody: VH3 heavy chain on modified canine IgG-B (IgG-Bm), kappa light chain L3
As for B1, the binding result is “binds”.
